Substitutions are numbered along the chain they refer to.
Assays:
hGPVI-hFc fusion protein [1] = target: T1, hGPVI-hFc fusion protein (human); assay: DELFIA competition assay: Fab preincubated with GPVI-Fc (3 µg/ml), binding to collagen-coated plate, Test 2
T1 construct: also called GPVI-Fc; human GPVI-Fc fusion protein
Procedure: (§1) Collagen coated 384 well plates (Pierce) were blocked with 3% BSA for 2 h. Increasing concentrations of anti GPVI Fab fragments (0.3-20 μg/ml) were incubated with recombinant GPVI (Fusion protein of the extracellular domain of GPVI and Fc-Part of human IgG; 3 μg/ml). The GPVI-Fab mixture was added to collagen coated plates and incubated for 1 h at RT. 384 well plates were washed (DELFIA wash buffer, Perkin Elmer) five times and Eu-labelled anti-human IgG (100 ng/ml Perkin Elmer) was added. Following 1 h incubation at room temperature plates were washed again five times, enhancement solution (Perkin Elmer) was added and incubated for 10 min. Fluorescence was detected at 360/612 nm using a Tecan Ultra reader. Shown in Table 15 are examples of the inhibitory effect of recombinantly produced anti-GPVI Fab fragments on GPVI collagen binding.

[2] = target: T2, human GPVI protein, soluble extracellular domain (D1 and D2) (human, UniProt Q9HCN6 21-267); assay: SPR (Biacore 3000), human GPVI immobilised, Fab analyte
T2 construct: extracellular domain; also called hGPVI; human glycoprotein VI
T2 sequence (looked up): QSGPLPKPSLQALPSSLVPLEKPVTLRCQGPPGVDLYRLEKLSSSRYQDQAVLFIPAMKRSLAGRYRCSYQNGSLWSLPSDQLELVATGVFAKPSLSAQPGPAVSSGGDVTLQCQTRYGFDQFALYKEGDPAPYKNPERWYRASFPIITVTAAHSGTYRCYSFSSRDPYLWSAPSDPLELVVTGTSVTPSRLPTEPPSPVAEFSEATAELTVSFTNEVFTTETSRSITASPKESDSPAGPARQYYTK
Procedure: Surface plasmon resonance technology on a Biacore 3000 (GE Healthcare) was used for detailed kinetic characterisation of purified antibody fragments. An assay with immobilised human GPVI was used. Typically, 300 RU of GPVI were immobilised on a research grade CM5 chip by amine reactive coupling, resulting in an Rmax of 200 RU for the bound antibody fragment. Binding kinetics were measured over a concentration range between 3.2 to 112 nM in HBS-EP (10 mM HEPES pH 7.4, 150 mM NaCl, 3 mM EDTA, 0.005% Surfactant P20) at a flow rate of 30 μl/min. Chip surfaces were regenerated with 10 mM glycine pH2.0. Kinetic parameters were analysed and calculated in the BIAevaluation program package (version 4.1) using a flow cell without immobilised GPVI as reference. A 1:1 binding model with mass transfer was applied for a global fit of the data for curves corresponding to analyte concentrations from 3-56 nM of Fab fragment.
Note that the Biacore assay used to measure the data in this example is different in terms of immobilized binding partner (GPVI versus the mAb/Fab fragment) and this leads to the different Biacore affinities as reported in Table 5.

hGPVI-hFc fusion protein [3] = target: T1, hGPVI-hFc fusion protein; assay: DELFIA competition assay: Fab preincubated with GPVI-Fc (3 µg/ml), binding to collagen-coated plate, Test 3
Procedure: as §1

human GPVI on platelets = target: T3, human GPVI on platelets (human, UniProt Q9HCN6 21-339); assay: cell-based or functional assay
T3 sequence (looked up): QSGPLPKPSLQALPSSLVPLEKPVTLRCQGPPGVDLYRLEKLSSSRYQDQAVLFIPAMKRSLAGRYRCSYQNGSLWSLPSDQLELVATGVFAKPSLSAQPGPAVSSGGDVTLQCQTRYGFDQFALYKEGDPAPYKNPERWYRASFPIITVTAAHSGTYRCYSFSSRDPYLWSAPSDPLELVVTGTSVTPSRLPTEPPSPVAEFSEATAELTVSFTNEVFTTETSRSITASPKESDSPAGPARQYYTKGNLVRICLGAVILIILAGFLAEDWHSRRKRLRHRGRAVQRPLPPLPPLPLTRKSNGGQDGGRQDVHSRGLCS

hGPVI-hFc fusion protein [4] = target: T1, hGPVI-hFc fusion protein; assay: DELFIA competition assay: Fab preincubated with GPVI-Fc (3 µg/ml), binding to collagen-coated plate, Test 1
Procedure: as §1

hGPVI-hFc fusion protein [5] = target: T1, hGPVI-hFc fusion protein; assay: DELFIA competition assay: IgG preincubated with GPVI-Fc (3 µg/ml), binding to collagen-coated plate, Test 2
Procedure: (§2) Collagen coated 384 well plates (Pierce) were blocked with 3% BSA for 2 h. Increasing concentrations of IgG or its corresponding Fab fragment produced by Ficin cleavage (0.3-20 μg/ml) were incubated with recombinant GPVI (Fc-fusion protein of the extracellular GPVI domain; 3 μg/ml) for 30 min. The GPVI-IgG mixture was added to collagen coated plates and incubated for 1 h at RT. Next, 384 well plates were washed (DELFIA wash buffer, Perkin Elmer) five times and Eu-labelled anti-human IgG (100 ng/ml Perkin Elmer) was added. Following 1 h incubation at room temperature plates were washed again five times, enhancement solution (Perkin Elmer) was added and incubated for 10 min. Fluorescence was detected at 360/612 nm using a Tecan Ultra reader.

hGPVI-hFc fusion protein [6] = target: T1, hGPVI-hFc fusion protein; assay: competition ELISA: purified IgG pre-incubated with hGPVI-Fc, mixture added to collagen-coated plate, bound GPVI-Fc detected with anti-human IgG-Fc-HRP (OD 450 nm); blocked ligand: collagen
Procedure: (§3) A secondary screening was performed to characterize functional properties of all human GPVI-specific mAbs for their ability to block the binding of collagen to human GPVI-Fc fusion protein in a competition ELISA binding assay. Custom-made collagen coated 96-well plates (Pierce) were used. Pre-incubated mixture of human GPVI-Fc fusion protein and hybridoma supernatants were added to the plate and collagen-human GPVI-Fc complex was detected by using goat anti-human IgG-Fc conjugated with horseradish peroxidase (Sigma; #A0170). The antibody binding was visualized by adding TMB-H2O2 buffer and read at a wavelength of 450 nm. […] The blocking properties of pre-selected mAbs to human GPVI were confirmed to be dose-dependent using a competition ELISA assay as shown in FIG. 1A.

[7] = target: T2, human GPVI protein, soluble …; assay: SPR (BIAcore 2000), mAb captured by anti-Fc, human GPVI in solution
Procedure: A last screening was performed by Surface Plasmon Resonance (BIAcore 2000) to evaluate binding properties of GPVI blocking antibodies. In this analysis, we evaluated the interaction of the human GPVI protein with the anti-human GPVI mAbs fixed to anti-Fc antibody covalently linked to CM chips. Binding kinetics of the individual mAbs were performed using the protocol described by Canziani et al 2004. Anal. Biochem. 325: 301-307.

hGPVI-hFc fusion protein [8] = target: T1, hGPVI-hFc fusion protein; assay: DELFIA competition assay: IgG preincubated with GPVI-Fc (3 µg/ml), binding to collagen-coated plate, Test 1
Procedure: as §2

[9] = target: T4, primate GPVI-Fc fusion protein (Macaca fascicularis) (Macaca fascicularis (cynomolgus), UniProt Q9HCN6 21-205 (human entry)); assay: competition ELISA against Maccaca GPVI-Fc: inhibition by purified IgG of the binding of GPVI-Fc to collagen; blocked ligand: collagen
T4 construct: also called Maccaca GPVI-Fc; primate GPVI-Fc protein; not shown: Fc part of the primate GPVI-Fc fusion is not described
T4 chain: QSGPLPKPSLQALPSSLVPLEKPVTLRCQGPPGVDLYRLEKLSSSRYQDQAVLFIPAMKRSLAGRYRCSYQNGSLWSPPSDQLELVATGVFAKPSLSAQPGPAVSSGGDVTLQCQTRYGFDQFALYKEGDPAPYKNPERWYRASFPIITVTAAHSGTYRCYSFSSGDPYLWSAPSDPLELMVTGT

hGPVI-hFc fusion protein [10] = target: T1, hGPVI-hFc fusion protein; assay: competition ELISA, hGPVI-Fc on collagen-coated plates (FIG. 1A)
Procedure: as §3

[11] = target: T2, human GPVI protein, soluble …; assay: SPR (Biacore 3000), Fab immobilised, human GPVI analyte
Procedure: Surface plasmon resonance technology on a Biacore 3000 (GE Healthcare) was used for detailed kinetic characterization of purified antibody fragments. A direct binding assay was used with the anti-GPVI Fab as the ligand and human GPVI as analyte. Typically, 500 RU of anti-GPVI Fab were immobilized on a research grade CM5 chip by amine reactive coupling, resulting in an Rmax of 200 RU for the bound GPVI molecule. Binding kinetics were measured over a concentration range typically between 0.8 to 208 nM in HBS-EP (10 mM HEPES pH 7.4, 150 mM NaCl, 3 mM EDTA, 0.005% Surfactant P20) at a flow rate of 30 μl/min. Chip surfaces were regenerated with 10 mM glycine pH 2.0. Kinetic parameters were analyzed and calculated in the BIAevaluation program package (version 4.1) using a flow cell without immobilized Fab as reference. A 1:1 binding model with mass transfer was applied for a global fit of the data for curves.

hGPVI-hFc fusion protein [12] = target: T1, hGPVI-hFc fusion protein; assay: DELFIA competition assay: Fab preincubated with GPVI-Fc (3 µg/ml), binding to collagen-coated plate, Test 2; remark: listed apart in the source
Procedure: as §2

hGPVI-hFc fusion protein [13] = target: T1, hGPVI-hFc fusion protein; assay: DELFIA competition assay: Fab preincubated with GPVI-Fc (3 µg/ml), binding to collagen-coated plate, Test 1; remark: listed apart in the source
Procedure: as §2

B1: humanized anti-GPVI Fab VL3/VH4 (Fab, V domains shown)
VH: QVQLQESGPGLVAPSQSLSITCTVSGFSLTYYGVNWVRQPPSRGLEWLGMIWGDGSTDYQSTLKSRLSISKDNSKSQVFLKMNSLTTDDTARYYCARDLPMDYWGQGTSVTVSS
VL: DIQMTQSPSSLSASVGGRVTITCKASQDINKYIAWYQHKPGKGPSLLIHYTSTLQPGVPSRFSGSGSGRDYSFSISNLQPEDIATYYCLQYALLLTFGGGTKLEIKR
notes: Recombinant Fab: VH fused to CH1 of human IGHG1 (Q569F4), HC ends in DKTHT; also called VL3 with VH4
IC50 (hGPVI-hFc fusion protein [1]): 0.72 µg/mL | Kd [2]: 0.3 nM | koff [2]: 4e-05 s⁻¹ | kon [2]: 151000 M⁻¹ s⁻¹ | IC50 (hGPVI-hFc fusion protein [3]): 1.02 µg/mL | IC50 for inhibition of collagen induced platelet aggregation (human PRP), Test 1 (human GPVI on platelets): 1 µg/mL | IC50 for inhibition of collagen induced platelet aggregation (human PRP), Test 2 (human GPVI on platelets): 2.3 µg/mL | IC50 for inhibition of collagen induced platelet aggregation (human PRP), Test 3 (human GPVI on platelets): 2 µg/mL | IC50 (hGPVI-hFc fusion protein [4]): 0.72 µg/mL

B2: anti-GPVI mAb from hybridoma clone 390 (antibody, mouse IgG1, kappa, V domains shown)
VH: B1 VH with Q5K, Y31G, S42G, R43K, Q60N, T86Q
VL: B1 VL with V15L, R18K, V58I, Q79E, L93N
modifications: N-glycosylation site (NST) in the heavy chain variable region is occupied
notes: Mouse IgG1, kappa, purified from hybridoma; also called monoclonal antibody from clone 390; IgG from hybridoma clone 390
IC50 (hGPVI-hFc fusion protein [5]): 5 µg/mL | IC50 (read off the curve) (hGPVI-hFc fusion protein [6]): ~3 µg/mL | Kd [7]: 0.04 nM | koff [7]: 4e-06 s⁻¹ | kon [7]: 108000 M⁻¹ s⁻¹ | IC50 (hGPVI-hFc fusion protein [8]): 5.6 µg/mL | IC50 (read off the curve) [9]: ~5 µg/mL | IC50 (hGPVI-hFc fusion protein [10]): < 10 µg/mL

B3: Fab 390-G (recombinant glycosylated Fab of clone 390) (Fab, V domains shown)
VH: B1 VH with Q5K, Y31G, S42G, R43K, Q60N, T86Q
VL: B1 VL with V15L, R18K, V58I, Q79E, L93N
modifications: additional N-glycosylation motif in VH kept
notes: Chimeric Fab from HEK293: VL fused to human constant kappa (IGKC, Q502W4), VH to CH1 of human IGHG1 (Q569F4)
Kd [11]: 0.05 nM | koff [11]: 1.5e-05 s⁻¹ | kon [11]: 320000 M⁻¹ s⁻¹

B4: Fab produced by Ficin cleavage of IgG from hybridoma clone 390 (Fab, V domains shown)
VH: B1 VH with Q5K, Y31G, S42G, R43K, Q60N, T86Q
VL: B1 VL with V15L, R18K, V58I, Q79E, L93N
notes: Proteolytic Fab; also called Fab (Ficin cleavage); proteolytic Fab fragment
IC50 (hGPVI-hFc fusion protein [12]): 1.1 µg/mL | IC50 (hGPVI-hFc fusion protein [13]): 1.3 µg/mL

B5: Fab 390-nG (recombinant non-glycosylated Fab of clone 390) (Fab, V domains shown)
VH: B1 VH with Q5K, Y31G, S42G, R43K, T86Q
VL: B1 VL with V15L, R18K, V58I, Q79E, L93N
notes: Chimeric Fab from HEK293: VL fused to human constant kappa (IGKC, Q502W4); also called ANTI-GPVI Fab 390-nG construct
Kd [2]: 0.2 nM | koff [2]: 2e-05 s⁻¹ | kon [2]: 102000 M⁻¹ s⁻¹ | Kd [11]: 0.06 nM | koff [11]: 2.2e-05 s⁻¹ | kon [11]: 348000 M⁻¹ s⁻¹

Source: patent publication US20150098939A1 (Sanofi, published 2015)
